Experimental data from the domain aggregation screens of Martell et al. (2025).

Assay: soluble fraction after stress (log2 fold change); higher = more stays soluble; pooled small domains, quantitative proteomics
Details: stress: 50 degC
Procedure, shortened: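 Quantitative proteomics served as the high-throughput read-out for pooled custom libraries of small protein domains. Each was stressed at 50°C. Aggregation propensity is expressed as the base-two log fold change in soluble protein after stress. A higher value means a larger share of the protein remains in solution.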

Sequence	soluble fraction (log2)
HMPDLSMLDEVLDEYRSQAGSLVTVLQKAQDLYGYLPLTILRHIAEEMNIKPAQVYGVATFYTQFRL	-0.0547
HMPDRQKDIQNWQQIAETLLNMLDKYVAALETGKTGLAEAYKAIFAETLRRLDDRLDPEQFLP	-1.54
HMPDTETLTPRQRQILDLVQELGFTTIETLAERFGVSAQTVRREIIRLQAGNFLQRFHGGAGLASGGIRSA	-0.632
HMPDYAFEGVVIKLTHRDYDRWKAGFPDVDLPPYLTARDAWLSEQTPADRKNWFVSTATDLRNFQKREAI	-1.66
HMPEDQISYTDLIKQINDGNVEKIKMTVGSTTIKVNLKEQEEPKTAIVPSTQAFIELVQEKVQDGNEITLI	0.119
HMPEITPAMIKALLSSLSEELAFASVTKVYAVLHNLFKAALLDDTIDRNPMDKVPRPRKSKDAAL	-0.38
HMPELPEVETSRRGIEPHLVGATILHAVVRNGRLRWPVSEEIYRLSDQPVLSVQRRAKYLLLELQA	0.0555
HMPELSPEERAIIETLQKNNDLQVNIIAIKTGMDMGSLSAVLFDLEMKGLVKLLAGGMYHLI	-0.148
HMPEPAPALPAKTRVSIRRETGGIIWHEGAWTISPPIRAYDGRWYVAVTTARKGIEFVPVSSVIRS	-1.07
HMPEPMKLSDLPPELWQRVSDLFDEVIDLPETDRIPYIRNLWGSEPLVAKELMALLVAAANVD	-0.274
HMPESFSEMQKRTGVGEFSDDALSAKYVDSIDADVMSLDEYIMKVRGISLDDLEAERALRAR	0.0325
HMPETAQLTDIQVSRSQAHTGIFSLHYYLTGTDSRGERVRLEISGDDYTRLSGSSSVTVEYYRHTGRIVRY	-1.55
HMPETYVVFSKDGYANLRRGTTINSEILDVLDNGEYVTKLDEVGEWYRVEYADFDGGYIHKSQLKNI	-0.252
HMPFDRTVQLAGARARQLQALPRYREVLRLLDEGMNPREIGQVLDPPVTRQRASALIQQAKRAQMLGLFED	-0.857
HMPFNLKSLADRLSHVFPGLVKMRDDIGAIIVMDKIKVTEHGVTEGGGLAADRVRAVYNEFIKEY	0.195
HMPFSLHGVNEGSRNDNAARIAGYLISKNLNLDFVRIFLHNWNRDNKPPLPQQEIDSVVDNVKKTHDRKN	-0.828
HMPGEATVPSVIGMTKAEAKAKLQASGFELGYSEFVASDKPKGEIVEQDPGAGETAKGGTEVNVKISDGS	-0.0145
HMPGLDTTILSDILSLKKELPSRSAAKILIMLILAKRIEEGSLNLRTINRILNQYGYTRESLL	0.0736
HMPGLQSVTPAELKIGMYVILPLAWDEHPFLKNHFLIQSEAQINKIRELGTKGIQIDLSKSHP	-0.904
HMPGMLVVYVTGAVRQPGRMVTLAAGSRVSDAIDAAGGLADDADAQALNLSARLNDGDLVHVPSALD	0.0161
HMPHILEITSSKILDELQDEKKMVYFHFEKQSNQYVYRLIFNSKNELMEFKKSLEKNSSILDVRADM	0.216
HMPHITDAEWEVMRVVWANHHVTSKEVISILEDKMNWKATTIKTLLGRLVEKGALSTEQDGKKFIYTAR	-1.5
HMPHTDATDKQIIALILETLKDGQKHSVSEMTFPGIPREKTAQLLHQMIEEETVRIQNGVLFLPH	-0.109
HMPIDNTLLSRITSLGVSTTEAEKLISKHGEEALKANLEVVEERLSKPNLPLLDSPAAYLKTALKNG	0.318
HMPIEQVEVPNLTNMTREEAESTLTSLNLKAQVHEEANEADEGKVFKQGTNTGEMVDEGSTIEIWVS	-0.478

Sequence	soluble fraction (log2)
HMPIHAGERLTLRLAGEGREAGQAIGYLEDGTLVIVERARHLIGQDVTVEVTRTLQTAGGRLVFAHLVE	-0.531
HMPKDLEKRAAILAAAKHLFPVHGFEGTSMDAIAALANVSKLTVYSHFKDKESLFTEAIREK	-0.087
HMPKDMAKRASILTAASKLFVQHGYGGVSMDQIAAEAGVSKLTVYSHYGDKDSLFAAAVQAH	-0.328
HMPKELAPYDILARYYLTVNNSKQSIALLEQYLDKAGSAPAALKAKLLLAGILYPSGNKERAEKLVEEVIK	-0.465
HMPKETFLNLDEEKRQAIINVLLKNFSEQHISQVKVSAIVSGIGMSRGAFYKYFEDLEDAYRFTISYFSA	-0.0102
HMPKLTKEEIQFIDNYLKNSGVEYIDTRAEVVDHVASEIESRLSANNTTNFYEEFKVYMVQHKETLLK	-0.49
HMPKLVGEVMQTLDALRREKGLSLLLVEQNARAALGVVDRVYVLERGRVVFEGSAKEAMEDQDVMEFYLG	0.0385
HMPKRSKDEAELEFLEMLRDNQVDSTWSFGKIISQLGSTDPRYWMVDDDPLWKRQIFEKYLSNR	-0.292
HMPLDISDDSKAVLKLLKNDSNELNTVKSASGLSNKKWDKTIKELTKNKIVSVSKTEDGLYIHLI	0.202
HMPLDYQELRNISPQAARQAILQILKANKGNVSQTARMLGITRKTVYKAMAKREAGNLDDGSRAPK	-0.554
HMPLLELPDDFYPAWKPKTIYVQGQRIMLDGVAFEAKWWTQGDNPASGQADPGSSPWRTLTQEEIAKLLE	-0.901
HMPLLKIGAQGHDVRVVQEALQRAGYAIEGVTGIFDEATREAVLAFQRDQQLTESGTVDRATWHALRR	0.134
HMPLLSPRQLDVLSLAAGGLSDAQIAGRLVLSESTVRVHFHHIIEKLGVTDRAGAIAWYEQSRS	-1.03
HMPLNAFDVAGYRLGYGGGYFDRTLAALSPRPLAVGVGFEINRLESIRPEAHDQRLDWIVTENGAFRPA	-0.867
HMPLNAHIVGRGKRDRRGKRGAPYSIVLELGRDENGKRIQKWYSGYPTKAAAEEDKIRMLRELQTGEYVPQ	-0.309
HMPLPFSPVMFVGTKSGAQTDLDGNYKIETYYSSDSLKVVVLGYAPLAKKVKQGTTSVVNFELSAAS	0.113
HMPLPLYVQIKESLRGQIFDGTYGEHERLPSENDLMSSFGVSRITVRQALSDLEKEELIFKVPGKGAFVSR	-1.32
HMPLQKNRPKIKPQKVVFLFSVEWMWSPAHNRIDSYFINIKPSRYYLWNSFFDRHSFSDYWDFIGYTEN	-0.0868
HMPLSDAEKAAAIATQAKERALKLSPEMISYLLRHASRDMRTLSMLVVALDQYTLEQKRPVTLPLLRELLS	-0.098
HMPMIQHFHRMISAALGISEKQIVQTLGLLNDGATIPFISRYRKEVTGGLDEVQIESIKTHYEKLNEIAK	-1.52
HMPMPQDEVSYALGLSIGQNFKASGIKAITSEDFIAGLQDALAEREPQMTTERAREVINQLFMRLQQEESE	0.145
HMPMTDYQLIRSNRRTIALQITRDARVVVRAPLYASEADIRRFVESHRAWIESHLDRQRARTD	-1.76
HMPMTRILFLPDDRTILQFDSAEPAEDLVSAVNAGRWLPPEPYRSGFGLGLPENRLRASRQGALVVVMLS	-0.967
HMPNDYRKKLEILAKEKGAEYLHTMLTEVDPKSALQIHTNNIKRTIRALEFYHQTGMKISEHNEAEREK	0.0272
HMPNIHVVFAEEWTDRRLDKVLSEYFDGYSRSFIKKLFDDGLILVNSKAVKPSYKVRAGDMIDISVPDPV	-0.646
